Source: US20050049403A1 (CAMBRIDGE ANTIBODY TECHNOLOGY, published 2005)
Residue numbers refer to the chain shown, from its start. Each block holds one molecule with its values, some of them ahead of it.

Columns and labels:
recombinant human TGFβ2 [1] = molecular target: T1, recombinant human TGFβ2 (human, UniProt P61812 303-414); test: A549 cell radioreceptor assay (nM IgG)
T1 sequence (looked up): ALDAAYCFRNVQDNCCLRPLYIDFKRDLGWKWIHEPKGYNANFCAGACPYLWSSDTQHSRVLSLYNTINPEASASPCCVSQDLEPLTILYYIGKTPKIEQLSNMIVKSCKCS
Procedure: (§1) Aliqouts of ¹²⁵I-TGFβ1 or TGFβ2 (70-90 TBq/mmol; Amersham International) at 20 pM are preincubated with antibody in binding medium at room temperature for 1 h. Duplicate samples of 0.5 ml of TGFβ/antibody mixtures are then added to the cell monlayers and are incubated at 37° C. for 1-2 h. Control wells contain TGFβ only. Unbound TGFβ is removed by washing 4 times with Hank's balanced salt solution containing 0.1% BSA. Cells are solubilised in 0.8 ml 25 mM Tris HCl pH 7.5, 10% glycerol, 1% Triton X-100 at room temperature for 20 min. The contents of each well are removed and ¹²⁵I measured in a gamma counter.
The ability of 6B1 IgG4 to inhibit binding of TGFβ isoforms to receptors was measured in a radioreceptor assay as described in example 4.

TGFβ3 [2] = molecular target: T2, TGFβ3 (UniProt P10600 301-412); test: A549 cell radioreceptor assay (nM IgG)
T2 sequence (looked up): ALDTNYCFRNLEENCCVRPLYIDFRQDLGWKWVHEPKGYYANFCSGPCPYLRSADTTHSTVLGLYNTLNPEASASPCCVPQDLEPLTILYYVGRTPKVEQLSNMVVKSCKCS

recombinant human TGFβ1 [3] = molecular target: T3, recombinant human TGFβ1 (human, UniProt P01137 279-390); test: A549 cell radioreceptor assay (nM IgG)
T3 sequence (P01137 279-390 limits assumed): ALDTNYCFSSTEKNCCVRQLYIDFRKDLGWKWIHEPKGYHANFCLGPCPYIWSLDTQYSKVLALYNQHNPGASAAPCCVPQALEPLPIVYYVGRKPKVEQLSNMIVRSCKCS

TGFβ3 [4] = molecular target: T2, TGFβ3; test: cell-based or functional assay
recombinant human TGFβ2 [5] = molecular target: T1, recombinant human TGFβ2; test: cell-based or functional assay
recombinant human TGFβ1 [6] = molecular target: T3, recombinant human TGFβ1; test: cell-based or functional assay
recombinant human TGFβ1 [7] = molecular target: T3, recombinant human TGFβ1; test: BIACore, scFv
Procedure: (§2) The off-rates for binding to TGFβ1 or TGFβ2 of the single chain Fv fragments described in this example were determined as described by Karlsson et al (R. Karlsson et al, J. Immunol. Methods 145, 229-240, 1991). The results obtained are shown in Table 2, together with dissociation constants for those which have been determined.

recombinant human TGFβ1 [8] = molecular target: T3, recombinant human TGFβ1; test: radioreceptor assay, inhibition of 125I-TGFβ1 binding to A549 cells; concentration of antibody combining sites
Procedure: (§3) Cells are seeded at 1-2×10^5 cells/ml/well into the wells of 24-well cluster plates and grown for 24 h in serum-free DMEM. Cell monlayers are washed twice with serum-free DMEM and 0.5 ml binding medium (DMEM/Hams F12 (Sigma D-6421) containing 0.1% (v/v) BSA added to each well.
as §1

recombinant human TGFβ1 [9] = molecular target: T3, recombinant human TGFβ1; test: radioreceptor assay, inhibition of 125I-TGFβ1 binding to A549 cells, Example 9
recombinant human TGFβ2 [10] = molecular target: T1, recombinant human TGFβ2; test: radioreceptor assay, inhibition of 125I-TGFβ2 binding to A549 cells; concentration of antibody combining sites
Procedure: as §3, §1

recombinant human TGFβ2 [11] = molecular target: T1, recombinant human TGFβ2; test: BIACore, scFv
Procedure: as §2

recombinant human TGFβ2 [12] = molecular target: T1, recombinant human TGFβ2; test: cell-based or functional assay; remark: listed apart in the source
recombinant human TGFβ2 [13] = molecular target: T1, recombinant human TGFβ2; test: BIACore, scFv injected over immobilised antigen
Procedure: (§4) The antibodies were also shown to be specific for TGFβ2 compared to TGFβ1 by relative binding to theBIACore sensor chips coated with the appropriate antigen. TGFβ1 and TGFβ2 were immobilised by amine coupling to Biosensor CM5 sensorchips (Pharmacia) according to the manufacturers instructions. […] The amount of TGFβ bound was assessed as the total increase in resonance units (RUs) over this period.

recombinant human TGFβ1 [14] = molecular target: T3, recombinant human TGFβ1; test: BIACore, scFv injected over immobilised antigen
Procedure: as §4

recombinant human TGFβ2 [15] = molecular target: T1, recombinant human TGFβ2; test: BIAcore 2000, koff divided by kon
Procedure: (§5) To determine the kinetic parameters, a series of dilutions of the antibody samples was made in HBS from about 500 μg/ml down to less than 1 μg/ml, usually through doubling dilutions. After the antibody has been injected over the antigen surface, the surface is washed with HBS, then regenerated by stripping off the bound antibody with a pulse of 100 mM HCl. At the higher concentrations of antibody the antigen on the chip surface is saturated, and the off rate is determined on washing with buffer in the dissociation phase. For determination of the on-rate, lower concentrations of antibody are used, giving a linear binding phase in the sensorgram, allowing kₒₙ determination.
(§6) 6B1 IgG4 was purified from the GS/NS0 cell line of Example 10 as in Example 2. 6B1 single chain Fv was expressed intracellularly in E. coli, refolded in vitro (using the methodology of WO94/18227), and purified to give a homogeneous product. The values of kₒₙ and koff were determined for 6B1 IgG4 for binding to both TGFβ2 and TGFβ3, and for the single-chain Fv 6B1 for binding to TGFβ2. The dissociation constant was calculated by dividing koff by kₒₙ.

recombinant human TGFβ2 [16] = molecular target: T1, recombinant human TGFβ2; test: BIAcore 2000, antigen immobilised, antibody as analyte
Procedure: The immobilisation of ligand is automated by the BIACore 2000 machine, and all steps are carried out in the autosampler or in the flowcell, on the dextran surface of the chip. The buffer used throughout the immobilisation procedure, and the analysis of samples is Hepes-buffered saline (HBS) with a surfactant (Pharmacia Biosensor). The chips (Pharmacia, CM5), have dextran coating on a thin layer of gold. NHS at 100 mM and EDC at 400 mM are mixed by the autosampler, and then a fixed volume is injected over the flowcell surface. This is followed by an injection of antigen in a suitable buffer. In the case of TGFβ, a surface of the correct density was given by using 25-30 μg/ml solution of TGFβ2 (AMS) OR TGFβ3 (R & D systems) in 10 mM acetate. After injection of the ligand, the chip is blocked using 1M ethanolamine. The total amount of TGFβ bound was assessed from the total increase in resonance units over this period.
as §5, §6

IC50 (recombinant human TGFβ2 [1]): 0.5 nM
IC50 (TGFβ3 [2]): 0.03 nM
IC50 (recombinant human TGFβ1 [3]): 0.55 nM
TF1 cell proliferation assay IC50 (nM IgG) (TGFβ3 [4]): 0.1 nM
TF1 cell proliferation assay IC50 (nM IgG) (recombinant human TGFβ2 [5]): 10 nM
TF1 cell proliferation assay IC50 (nM IgG) (recombinant human TGFβ1 [6]): 1.5 nM
Molecule: Mouse anti-TGFβ1,2,3 monoclonal antibody from Genzyme

Kd (recombinant human TGFβ1 [7]): 12 nM
koff (recombinant human TGFβ1 [7]): 0.0009 s⁻¹
IC50 (recombinant human TGFβ1 [8]): 30 nM
B1: 31G9 scFv (scFv)
scFv: QVQLVQSGGGVVQPGRSLRLSCAASGFTFSSYGMHWVRQAPGKGLEWVAVISYDGSIKYYADSVKGRFTISRDNSKNTLYLQMNSLRAEDTAVYYCARTGEYSGYDTSGVELWGQGTTVTVSSGGGGSGGGGSGGGGSDIVMTQSPSTLSASVGDRVTITCRASQGISSWLAWYQQKPGRAPKVLIYKASTLESGVPSRFSGSGSGTDFTLTISSLQPEDFATYYCQQSYSTPWTFGQGTKLEIKR
notes: VH-linker-VL in pCANTAB6; also called 31G9 single chain Fv

koff (recombinant human TGFβ1 [7]): 0.0017 s⁻¹
IC50 (recombinant human TGFβ1 [8]): ~60 nM
B2: CS39 scFv (scFv)
scFv: B1 scFv with I140V, T148S, S169N, W170Y, R180K, V184L, D208E, W234R, L242V, E243D

IC50 (recombinant human TGFβ1 [8]): > 100 nM
B3: 7A3 scFv (scFv)
scFv: QVQLVESGGGVVQPGRSLRLSCAASGFTFSSYGMHWVRQAPGKGLEWVAVISYDGSNKYYADSVKGRFTISRDNSKNTLYLQMNSLRAEDTAVYYCAKTGEYSGYDSSGVDVWGKGTTVTVSSGGGGSGGGGSGGGGSDIVMTQSPDSLAVSLGERATINCKSSQSLLYSYNKMNYLAWYQQKPGQPPKLLINWASTRESGVPDRFSGSGSGTDFTLTISSLQAEDVAVYYCQQYYATPLTFGHGTKVEIKR
notes: Light chain shuffle of 1-B2

IC50 (recombinant human TGFβ1 [9]): 40 nM
koff (recombinant human TGFβ1 [7]): 0.0012 s⁻¹
IC50 (recombinant human TGFβ1 [8]): 4.5 nM
B4: CS32 scFv (scFv)
scFv: B3 scFv with E6Q, N57I, K98R, S107T, D111E, V112L, K115Q

IC50 (recombinant human TGFβ2 [10]): 1.6 nM
B5: 11E6 IgG (antibody, V domains shown)
VH: EIQLVESGGGVVQPGRSLRLSCAASGFTFSSYAMHWVRQAPAKGLEWVAVISYDGSNKYYADSVKGRFTISRDNSKNTLYLQMNSLRAEDTAVYYCARAGLETTWGQGTLVTVSS
VL: EVVLTQSPSSLSASVGDRVTITCRASQGIGDDLGWYQQKPGKAPILLIYGTSTLQSGVPSRFSGSGSGTDFTLTINSLQPEDFATYYCLQDSNYPLTFGGGTRLEIKR
notes: its construction as a whole antibody is not described

koff (recombinant human TGFβ2 [11]): 0.0011 s⁻¹
IC50 (recombinant human TGFβ2 [10]): 0.22 nM
I.C.50 in TF1 assay (neutralisation of TGFβ2 inhibition of TF1 cell proliferation) (recombinant human TGFβ2 [12]): 1.5 nM
increase in resonance units (recombinant human TGFβ2 [13]): 77 RU
increase in resonance units (recombinant human TGFβ1 [14]): 686 RU
B6: 6H1 scFv (scFv)
scFv: EVQLVESGGGVVQPGRSLRLSCAASGFTFSSYGMHWVRQAPGKGLEWVAVIWYDGSNKYYADSVKGRFTISRDNSKNTLYLQMDSLRAEDTAVYYCGRTLESSLWGQGTLVTVSSGGGGSGGGGSGGGGSDVVMTQSPSSLSASVGDRVTITCRASQGISNYLAWYQQKPGKAPKLLIYKASTLESGVPSRFSGSGSGTEFTLTISSLQPEDFATYYCQQSYSTPRTFGQGTKVDIKR

koff (recombinant human TGFβ2 [11]): 0.0021 s⁻¹
IC50 (recombinant human TGFβ2 [10]): 3 nM
I.C.50 in TF1 assay (neutralisation of TGFβ2 inhibition of TF1 cell proliferation) (recombinant human TGFβ2 [12]): 90 nM
increase in resonance units (recombinant human TGFβ2 [13]): 115 RU
increase in resonance units (recombinant human TGFβ1 [14]): 616 RU
B7: 14F12 scFv (scFv)
scFv: EIQLVESGGGVVQPGRSLRLSCAASGFTFSSYAMHWVRQAPAKGLEWVAVISYDGSNKYYADSVKGRFTISRDNSKNTLYLQMNSLRAEDTAVYYCARAGLETTWGQGTLVTVSSSGGGGGSGGGGSGGGGSSSELTQDPAVSVALGQTVRITCQGDSLRNYYANWYQQKPGQAPVLVIYGKNNRPSGIPDRFSGSSSGNTASLTITGARAEDEGVYYCNSRDSSGAVFGGGTKLTVLG

Kd (recombinant human TGFβ2 [11]): 0.7 nM
koff (recombinant human TGFβ2 [11]): 0.00014 s⁻¹
IC50 (recombinant human TGFβ2 [10]): 1.5 nM
I.C.50 in TF1 assay (neutralisation of TGFβ2 inhibition of TF1 cell proliferation) (recombinant human TGFβ2 [12]): 8 nM
increase in resonance units (recombinant human TGFβ2 [13]): 71 RU
increase in resonance units (recombinant human TGFβ1 [14]): 480 RU
B8: 6A5 scFv (scFv)
scFv: EVQLVESGGGVVQPGRSLRLSCAASGFTFSSYGMHWVRQAPGKGLEWVAVIWYDGSNKYYADSVKGRFTISRDNSKNTLYLQMDSLRAEDTAVYYCGRTLESSLWGQGTLVTVSSGGGGSGGGGSGGGGSSSELTQDPAVSVALGQTVRITCQGDSLRSYYASWYQQKPGQAPVLVIYGKNNRPSGIPDRFAGSNSGNTASLTITGAQAEDEADYYCSSRDSSGNHVVFGGGTKLTVLG
notes: also called 6A5 single chain Fv

koff (recombinant human TGFβ2 [11]): 0.0006 s⁻¹
IC50 (recombinant human TGFβ2 [10]): 0.3 nM
Kd (recombinant human TGFβ2 [15]): 2.32 nM
koff (recombinant human TGFβ2 [16]): 0.000668 s⁻¹
kon (recombinant human TGFβ2 [16]): 287000 M⁻¹ s⁻¹
I.C.50 in TF1 assay (neutralisation of TGFβ2 inhibition of TF1 cell proliferation) (recombinant human TGFβ2 [12]): 15 nM
B9: 6B1 scFv (scFv)
scFv: EVQLVESGGGVVQPGRSLRLSCAASGFTFSSYGMHWVRQAPGKGLEWVAVIWYDGSNKYYADSVKGRFTISRDNSKNTLYLQMDSLRAEDTAVYYCGRTLESSLWGQGTLVTVSSGGGGSGGGGSGGGGSSSELTQDPAVSVALGQTVRITCQGDSLRSYYASWYQQKPGQAPVLVIYGKNNRPSGIPDRFSGSSSGNTASLTITGAQAEDEADYYCNSRDSSSTHRGVFGGGTKLTVLG
notes: also called 6B1 single chain Fv

IC50 (recombinant human TGFβ1 [9]): ~8 nM
B10: CS37 scFv (scFv)
scFv: QVQLVQSGGGVVQPGRSLRLSCAASGFTFSSYGMHWVRQAPGKGLEWVAVISYDGSIKYYADSVKGRFTISRDNSKNTLYLQMNSLRAEDTAVYYCARTGEYSGYDTSGVELWGQGTTVTVSSGGGGSGGGGSGGGGSEIVLTQSPSSLSASVGDRVTITCRASQGIGDDLGWYQQKPGKAPILLIYGTSTLQSGVPSRFSGSGSGTDFTLTINSLQPEDFATYYCLQDSNYPLTFGGGTRLEIKR
